Assay results taken from patent publication US20030054337A1.

Columns and labels:
[1] = molecular target: V12.Pf1 recombinant HBc chimer particle (hepatitis B virus, subtype ayw; Plasmodium falciparum); test: particle ELISA, end point titer dilution of MoAb 2A10
[2] = molecular target: V12.Pf3 recombinant HBc chimer particle (hepatitis B virus, subtype ayw; Plasmodium falciparum); test: as above
[3] = molecular target: V12.Pf3.1 recombinant HBc chimer particle (hepatitis B virus, subtype ayw; Plasmodium falciparum); test: as above
[4] = molecular target: V12.Pf3.10 recombinant HBc chimer particle (hepatitis B virus, subtype ayw; Plasmodium falciparum); test: as above
[5] = molecular target: V12.Pf3.11 recombinant HBc chimer particle (hepatitis B virus, subtype ayw; Plasmodium falciparum); test: as above
[6] = molecular target: V12.Pf3.12 recombinant HBc chimer particle (hepatitis B virus, subtype ayw; Plasmodium falciparum); test: as above
[7] = molecular target: V12.Pf3.2 recombinant HBc chimer particle (hepatitis B virus, subtype ayw; Plasmodium falciparum); test: as above
[8] = molecular target: V12.Pf3.3 recombinant HBc chimer particle (hepatitis B virus, subtype ayw; Plasmodium falciparum); test: as above
[9] = molecular target: V12.Pf3.4 recombinant HBc chimer particle (hepatitis B virus, subtype ayw; Plasmodium falciparum); test: as above
[10] = molecular target: V12.Pf3.5 recombinant HBc chimer particle (hepatitis B virus, subtype ayw; Plasmodium falciparum); test: as above
[11] = molecular target: V12.Pf3.6 recombinant HBc chimer particle (hepatitis B virus, subtype ayw; Plasmodium falciparum); test: as above
[12] = molecular target: V12.Pf3.8 recombinant HBc chimer particle (hepatitis B virus, subtype ayw; Plasmodium falciparum); test: as above
[13] = molecular target: V12.Pf3.9 recombinant HBc chimer particle (hepatitis B virus, subtype ayw; Plasmodium falciparum); test: as above
[14] = molecular target: V12.Pf3.1 recombinant HBc chimer particle (hepatitis B virus, subtype ayw; Plasmodium falciparum); test: particle ELISA, end point titer dilution of MoAb 2A10; reference V12.Pf3

Substance: MoAb 2A10 (antibody)
- Antigenicity (end point titer, normalized so that the lowest titer is 1) [1]: 33 fold
- Antigenicity (end point titer, normalized so that the lowest titer is 1) [2]: 165 fold
- Antigenicity (end point titer, normalized so that the lowest titer is 1) [3]: 33 fold
- Antigenicity (end point titer, normalized so that the lowest titer is 1) [4]: 1 fold
- Antigenicity (end point titer, normalized so that the lowest titer is 1) [5]: 5 fold
- Antigenicity (end point titer, normalized so that the lowest titer is 1) [6]: 5 fold
- Antigenicity (end point titer, normalized so that the lowest titer is 1) [7]: 33 fold
- Antigenicity (end point titer, normalized so that the lowest titer is 1) [8]: 5 fold
- Antigenicity (end point titer, normalized so that the lowest titer is 1) [9]: 5 fold
- Antigenicity (end point titer, normalized so that the lowest titer is 1) [10]: 5 fold
- Antigenicity (end point titer, normalized so that the lowest titer is 1) [11]: 5 fold
- Antigenicity (end point titer, normalized so that the lowest titer is 1) [12]: 5 fold
- Antigenicity (end point titer, normalized so that the lowest titer is 1) [13]: 5 fold
- fold less antigenic than V12.Pf3 [14]: 5 fold
